Experimental data from the nanobody polyreactivity screen of Harvey et al. (2022).

Experiment: yeast display, Sf9 membrane polyspecificity reagent, FACS + sequencing; frameworks hold sequencing errors
Outline: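 Galactose-induced (36–48 hours) yeast carrying a synthetic nanobody display library were exposed to 10% biotinylated, detergent-solubilized Sf9 membrane reagent at 4 °C for 1 hour. FACS followed streptavidin microbead enrichment, using low and high (top ~1%) gates for expression (anti-HA) and reagent binding (streptavidin). Colony PCR, MiSeq 2 × 250 sequencing and CDR-length filtering followed. Labels for polyreactivity reflect the gate of origin.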
In the case of “QVQLVESGGGLVQAGGSLRLSCAASGRIFAYYAMGWYRQAPGKERELVAAISGSDGSTYYADSVKGRFTISLDNAKNTVYLQMNSLKPEDTAVYYCAAQDTPGYDYWGQGTQVTVSS”, the “polyreactivity (PSR sort gate)” value is reported as “low polyreactivity”.
With “QVQLVESGGRLVQAGGSLRLSCAASGRTFRAYVMGWYRQSPGKERELVAAISSSGGRTYYADSVKGRFTISRDNAKNTVYLQMNSLKPEDTAVYYCAAQAVRGGIGEDDYWGQGTQVTVSS” the “polyreactivity (PSR sort gate)” value was “high polyreactivity”.
For “QVQLVESGGGLVQAGCSLRLSCAASGRTFVHYTMGWYRQAPGKERELVATISTSGGSTSYADSVKGRFTISRDNAKNTVYLQMNSLKPEDTAVYYCAARWYFPDRVKYDYWGQGTQVTVSS”, the “polyreactivity (PSR sort gate)” value was “low polyreactivity”.
For “QVQLVESGGGLVQAGGSLRLSCAASGFIFTRNVMGWNRQAPGKERELVAAISSGGRTYYADSVKGRFTISRDNAKKTVYFQMISLKPEDTAVYYCNAGNRGVYRYDYWGQGTQVTVSS”, the “polyreactivity (PSR sort gate)” value was “high polyreactivity”.
For “QVQLVESGGGLVQAGGSLRLSCAASGRTFVNYAMGWYRQAPGKERELVAAISGGGGTNYADSVKGRFTISRDNAKNTVYLQMNSLKPEDTAVYYCAADTNGYEFDYWGQGTQVTVSS”, the “polyreactivity (PSR sort gate)” value was “low polyreactivity”.
In the case of “QVQLVESGGGLVQAGGSLRLSCAASGFIFAHNAMGWYRQAPGKARELVAAITSSGGSTYYADSVKGRFTISRDNAKNTVYLQKNSLKPEDTAVYYCNAYTYARRGYDYWGQGTQVTVSS”, the “polyreactivity (PSR sort gate)” value is reported as “high polyreactivity”.
With “QVQIVESGGGLVQAGGSLRLSCAASGFTFALYAMGWYRQEPGKEREWVAANTRSGRTKYADSVKGRFTISRDNAKNTVYLQMNSLKPEDTAVYYCAADFRYYVTTRFNYWGQGTQVTVSS” the “polyreactivity (PSR sort gate)” value was “high polyreactivity”.
In the case of “QVQLVESGGGLVQAGGSLRLSCAASGSIFFQYGMGWYRQAPGKEREFVAAISVSGGSTYYADSVKGRFTISRDNAKNTVYLQMNSLKPEDTAVYYCAAEFRGDTTSLVYASSYDYWGQGTQVTVSS”, the “polyreactivity (PSR sort gate)” value is reported as “low polyreactivity”.
In the case of “QVQLVESGGGLVQAGGSLRLSCAASGFTFTKNAMGWYRQAPGKERELVAAISRGGGRTYYADSVKGRFTISRDNAKNTVYLQMNSLKPEDTAVYYCNVDKVGPGYDYWGQGTQVTVSS”, the “polyreactivity (PSR sort gate)” value is reported as “high polyreactivity”.
With “QVQLVESGGGLVQAGGSLRLSCAASGSTLYSYAMGWYRQAPGKERELVAAIRRDSGRTYYADSVKGRFTISRDNEKNTVYLQMNSLKPEDTAVYYCAAAYRLGYHKYYYWGQGTQVTVSS” the “polyreactivity (PSR sort gate)” value was “high polyreactivity”.
For “QVQLVESGGGLVLAGGSLLLSCAAAGSTFSQNAMGWYRQAPGKERELVAAITSGGITYYADSVKGRFTISRDNAKNSVYLQMNSLKPEDTAVYYCNADPIVSPYRLWTVTYYYWGQGTQVTVSS”, the “polyreactivity (PSR sort gate)” value was “low polyreactivity”.
With “QVQLVESGGGLVQAGGSLRLSCAASGITLGRYSMGLYRQAPGKVRELVAVISDSGGSTYYADSVKGRFTISRDNAKNTVYLQMNSLKPEYTAVYYCARRFDRYPRYYYWGQGTQVTVSS” the “polyreactivity (PSR sort gate)” value was “high polyreactivity”.
In the case of “QVQLVESGGGLVQAGGSLRLSCAASGFIFDYNAMGWYRQAPGKERELVAAITSGGGSTYYADSVKGRFTISRDNAKNTVYLQMNSLKPEDTAVYYCNAVPSQHDEFDYWGQGTQVTVSS”, the “polyreactivity (PSR sort gate)” value is reported as “low polyreactivity”.
For “QVQLVESGGGLVQAGGSLRLSCAASGFIFYQYAMGWYRQAPGKERELVAAITSRGGRTYYADSVKGRFTISRDNAKNTVYLQMNSLKPEDTAVYYCAVRKASDYYYWGQGTQVTVSS”, the “polyreactivity (PSR sort gate)” value was “high polyreactivity”.
For “QVLLVETGGGLVQAGGSLRLSCAASGLIFYDNMGWYRQAPGKERELVAAISSSGGSTSYADSVKGRFTISRDNAKNTVYLQMNSLKPEDTAVYYCAADSYPAYLGFVGFDYWGQGTQVTVSS”, the “polyreactivity (PSR sort gate)” value was “low polyreactivity”.
For “QVQLQESGGGLVQAGGSLRLSCAASGPISRRSTMGWYRQAPGKERELVTAITRGTNTNYADSVKGRFTISRDNAKNTEYLQMYCLKPEDTAVYYCAAYGVLKPSRGDAVFHRYWGQGTQVTVSS”, the “polyreactivity (PSR sort gate)” value was “low polyreactivity”.
In the case of “QVQLVESGGGLVQAGGRLRLSCAASGGTFHKYAMGWYRQAPGKERELVAGISRRTGTTYYADSVKGRFTISRDNAKNTVYLQMNSLKPEDTAVYYCATDWGRYSRLSKADPSDYWGQGTHVTVSS”, the “polyreactivity (PSR sort gate)” value is reported as “high polyreactivity”.
With “QVQLVESGGGLVQSGGSLRLSCAASGRIFKLYAMGWYRQAPGKERELVAAITRTGTSTYYADSVKGRFTISRDNAKNTVYLQMNSLKPEDTAVYYCNKTTLLTVEYDYWGQGTQVTVSS” the “polyreactivity (PSR sort gate)” value was “low polyreactivity”.
In the case of “QVQLVESGGGLVEAGGSLRLSCAASGLTIRWYAMGWYRQAPGKESEVVATISSGGSTNYADSVKGRFTISRDNAKNTVYFQMNSLTPEDTAVYYCNAYFRGYYHATIGMDYWGQGTQVTVSS”, the “polyreactivity (PSR sort gate)” value is reported as “high polyreactivity”.
For “QVQLVESGGGLVQAGGSLRLSCAASGSTISPNSMGWYRQAPGKERELVAAISSDASTNYADSVKGRFTISRDNAKNTVYLQRNCLTPDDTALYYCAADLWTLIYLTDTYGHWGQGTQVTVSS”, the “polyreactivity (PSR sort gate)” value was “low polyreactivity”.
With “QVQLVESGGGLVQAGGSLRLSCAASGRIFGRYAMGWYRPAPGKERELVAGISARGGSTYYADSVKGRFTISRDNAKNTVYLQMNSLKPEDTAVYYCAARPYSIVPYDYWGQGTQVTVSS” the “polyreactivity (PSR sort gate)” value was “high polyreactivity”.
In the case of “QVQLVESGGGLVQAGGSLRLSCAASGSTFPLYAMGWYRQAPGKEREFVAAIRWIGGSTYYADSVKGRFTISRDNAKNTVYLQMNSLKPEDTAVYYCAADYVVSAFDYWGQGTQVTVSS”, the “polyreactivity (PSR sort gate)” value is reported as “low polyreactivity”.
With “QVQLVESGGGLVQAGGSLRLSCAASGRTFLIYAMGWYRQAPRKEREFVAAIRGRGGSTYYADSVKGRFTISRDNAKNTVYLQMNSLKPEDTAVYYCAATFPGRSFRIRGYGYDYWGQGTQVTVSS” the “polyreactivity (PSR sort gate)” value was “high polyreactivity”.
For “QVQLGESGGGLVQAGGSLRLSCAASGNTFGTYAMGWYRHAPGKERELVAAITWRGGRTTYADSVKGRFTISRDNAKNTVYLQMIRLIPEDTAVYYCAAVIHWWYATYDYWGQGTQVTVSS”, the “polyreactivity (PSR sort gate)” value was “high polyreactivity”.
In the case of “QVQLVDSGGGIVQAGGSLRLRCAASGFTFDFYAMGWYRQAPGKERELVADISSSDGSTYADSVKGRFTISRDNAKNTVYLQMNSLNPEDTAVYYCAADYDNQYDFSLDDEYWGQVTQVTVSS”, the “polyreactivity (PSR sort gate)” value is reported as “low polyreactivity”.
With “QVQLVESGGGLVQAGVSLRLSCAASGRTLRRTAMGWYRQAPGTERELVAAISSIGGSTYYADSVKGRFTISRDNAKITVYLQMNSLKPEDTAVYYCAADILIYPYSYDYYWGQGTQVTVSS” the “polyreactivity (PSR sort gate)” value was “high polyreactivity”.
In the case of “QVQLVESGGGLVQAGGSLRLSCAASGRIFHFNAMGWYRQAPGTEKELVATITKRGGRTYYADSVKGRFTISRDNAKNTVYLQMNSLKPDDTAVYYCNADQTRYSAVSGYDYWGQGTQVTVSS”, the “polyreactivity (PSR sort gate)” value is reported as “high polyreactivity”.
For “QVQLVESRGGLVQAGGSLRLSCAASGRTFQYYAKGWYRQERGKVRELVAAISGSTSRTYYADSVKGRFTISRDNAKNTVYLQMNSLKPEDTAVSYCAAALYRLYITSYYYWGPGTQVTVSS”, the “polyreactivity (PSR sort gate)” value was “high polyreactivity”.
With “QVQLVESGGGLVQAGGSLRLSCAASGRTFAVNAMGWYRQAPGKESELVAAISQRAGRTYYADSVKGRFTISRDNAKNTVYLQMNSLKPEDTAVYYCNVVGFRSRVGSRGYWGQGTQVTVSS” the “polyreactivity (PSR sort gate)” value was “high polyreactivity”.
With “QVQLVESGGGLVQAGGSLRLSCAASGSTFYIYAMGWYRQAPGKERELVADITWSGGSTYYADSVKGRFTISRDNAKNTVYLQMNSLKPEDTAVYYCATDSWFGLEYWGQCTQVTVSS” the “polyreactivity (PSR sort gate)” value was “high polyreactivity”.
For “QVQLVESGGGLVQAGGSLRLSCAASGSIFSRYAMGWYRQAPGKEREVVADISQRAGSTYYADSVKGRFTISRDNAKITVYLQMNSLKPEDTAVYYCAKPEAQVGGYWGYDYWGQGTQVTVSS”, the “polyreactivity (PSR sort gate)” value was “high polyreactivity”.
In the case of “QVQLVESGGGLVQAGGSLRLSCAASGFIFSRYTMGWYRQAPGKERELVAAISKRGGSTYYADSVKGRFTISRDNAKNTVYLQMNSLKPEDTAVYYCAADRLPSGSLVEYWGQGTQVTVSS”, the “polyreactivity (PSR sort gate)” value is reported as “high polyreactivity”.
For “QVQLVESGGGLVQAGGSLRLSCAASGFTIYNYAMGWYRQAPGKERELVAAISWSGGSTHYADSVKGRFTISRDNAKNTVYLQMNSLKPEDTAVYYCAKVGVLVYYTYYYWGQGTQVTVSS”, the “polyreactivity (PSR sort gate)” value was “low polyreactivity”.
In the case of “QVQLVESGGGLVQAGGSLRLSCASSGSISYYAMGWYRQAPGKERELVAAISSGGSTYYADSVKGRFTISRDNAKNTVYLQMNSLKPEDTAVYYCAVRYIIRGYATRYYYWGQGTQVTVSS”, the “polyreactivity (PSR sort gate)” value is reported as “high polyreactivity”.
In the case of “QVQLVESGGGLVQAGGSLRLSCAASGSIFSYYVMGWYRQAPGKERELVAAISYSGGRTYYADSVKGRFTISRDNAKNTVYLQMNSLKPEDTAVYYCAASRRVGEVSYYYWGQGTQVTVSS”, the “polyreactivity (PSR sort gate)” value is reported as “high polyreactivity”.
In the case of “QVQLVESGGGLVQAGGSLRLSCAASGIIFGDNAMGWYRQATGKERELVAAIDYGDGSTYYADSVKGRFTISRDNENNTVYLQMNRLKPEDTAVYYCNADDGGPGVVLPTKEYDYWGQGTQVTVSS”, the “polyreactivity (PSR sort gate)” value is reported as “low polyreactivity”.
For “QVQLVESGGGLVQAGGSLRLSCAASGRISRIYAMGWYRQAPGKERELVAAIRGRGGSTYYADSVKGRFTISRDNAKNTVYLQMNSLKPEVTAVYYCAADGWARYEYWGQGTQVTVSS”, the “polyreactivity (PSR sort gate)” value was “high polyreactivity”.
In the case of “QVQLVESGGGLVQAGGSLRLSCAACGRTFYQNAMGWYRQAPGKERELVAAISRSGGSTYYADSVKGRFTISLYNAKNTVYLQMNSLKPEDTAVYFCAADPRSYGGGYDYWGQGTQVTVSS”, the “polyreactivity (PSR sort gate)” value is reported as “high polyreactivity”.
With “QVQLVESGGGLVQAGGSLRLSCSASGIIYKSYAMGWYRQAPGKERELVAAISGGGDTYYADSVKGRFTISRDNAKNTVYLQMNSLKPEDTAVYYCNTDGSQGTIIAIFVKYDYWGQGTQVTVSS” the “polyreactivity (PSR sort gate)” value was “low polyreactivity”.
For “QVQLVESGGGLVQAGGSLRLSCAASGITFVTYAMGWYRQAPGKERELVAAISRSGGNTYYADSVKGRFTISRDNAKNTVYLQMNSLKPEDTAVYYCAAGGHRERDYWGQGTQVTVSS”, the “polyreactivity (PSR sort gate)” value was “high polyreactivity”.
With “QVQLVESGGGLVQAGGSLRLSCAASGSTFSRNAMGWSRQAPGKERELVAAITRSGGSTYYADSVKGRFSISRDNAKNTVYLQMNSLKPEDTAVYYCAVLSVRRSYNYWGQGTQVTVSS” the “polyreactivity (PSR sort gate)” value was “high polyreactivity”.
In the case of “QVQLVESGRGIVQAGGSLRLSCAASGSIFLHNAMGWYRQAPGKETELVAAITGSGGYTYYADSVKGRFTISRDNPKNTVYIQMNSRQPEDTAVYYCAACSRSRYYRYVYYQYVTMDYWGQGTQETVSS”, the “polyreactivity (PSR sort gate)” value is reported as “high polyreactivity”.
In the case of “QVQLVESGGGLVQAGGSLRLSCAASGFIFARYAMGWYRQAPGKERELVAAISVSGGSTYYADSVKGRFTISRDNAKNTVYLQMNSLKPEDTAVYYCAATRPFVSGWIMDYWGQGTQVTVSS”, the “polyreactivity (PSR sort gate)” value is reported as “high polyreactivity”.
